Assay results reported in publication PMC7498356.

Assays:
[1] = target: T1, TDRD5 LOTUS domain 3 (L3) (Mus musculus, UniProt Q5VCS6 291-365); experiment: pull-down
T1 sequence: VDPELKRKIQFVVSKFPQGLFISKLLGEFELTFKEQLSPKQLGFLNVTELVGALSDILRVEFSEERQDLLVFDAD

[2] = target: T2, TDRD5 LOTUS domain 2 (L2) (Mus musculus, UniProt Q5VCS6 122-197); experiment: pull-down
T2 sequence: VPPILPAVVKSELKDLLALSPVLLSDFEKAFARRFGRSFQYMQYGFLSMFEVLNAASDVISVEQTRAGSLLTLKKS

[3] = target: T3, TDRD5 LOTUS domain 1 (L1) (Mus musculus, UniProt Q5VCS6 7-80); experiment: pull-down
T3 sequence: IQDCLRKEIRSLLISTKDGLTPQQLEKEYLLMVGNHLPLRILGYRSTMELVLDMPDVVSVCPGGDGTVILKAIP

TP0894-LOTUS = target: T4, TP0894-LOTUS (Treponema pallidum subsp. pallidum str. …, UniProt O83864 178-253); experiment: ELISA
T4 sequence: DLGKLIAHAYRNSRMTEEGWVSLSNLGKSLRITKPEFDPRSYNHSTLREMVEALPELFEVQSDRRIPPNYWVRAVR

AT3G52980-LOTUS = target: T5, AT3G52980-LOTUS (plant, UniProt Q9LF94 199-282); experiment: ELISA
T5 sequence: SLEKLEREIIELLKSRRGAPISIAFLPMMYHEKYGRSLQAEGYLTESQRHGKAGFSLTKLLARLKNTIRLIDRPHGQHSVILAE

TDRD7 L2 = target: T6, TDRD7 L2 (Mus musculus, UniProt Q8K1H1 222-291); experiment: ELISA
T6 sequence: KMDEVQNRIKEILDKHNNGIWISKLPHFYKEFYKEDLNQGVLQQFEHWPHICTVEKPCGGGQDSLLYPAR

human TDRD5 L1 = target: T7, human TDRD5 L1 (Homo sapiens, UniProt Q8NAT2 7-80); experiment: ELISA
T7 sequence: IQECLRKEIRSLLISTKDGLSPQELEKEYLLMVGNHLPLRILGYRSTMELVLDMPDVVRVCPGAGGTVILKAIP

TDRD7 L3 = target: T8, TDRD7 L3 (Mus musculus, UniProt Q8K1H1 325-394); experiment: ELISA
T8 sequence: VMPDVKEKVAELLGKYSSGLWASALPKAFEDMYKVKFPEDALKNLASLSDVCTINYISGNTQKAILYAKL

human MARF1 L7 = target: T9, human MARF1 L7 (Homo sapiens, UniProt Q9Y4F3 1411-1485); experiment: ELISA
T9 sequence: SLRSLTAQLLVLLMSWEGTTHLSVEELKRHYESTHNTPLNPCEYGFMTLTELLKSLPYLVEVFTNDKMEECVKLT

TDRD7 L1 = target: T10, TDRD7 L1 (Mus musculus, UniProt Q8K1H1 3-76); experiment: ELISA
T10 sequence: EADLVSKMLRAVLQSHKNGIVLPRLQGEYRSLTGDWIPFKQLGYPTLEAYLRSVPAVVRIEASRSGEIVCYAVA

Tejas LOTUS = target: T11, Tejas LOTUS (Drosophila, UniProt A1Z9P1 6-79); experiment: ELISA
T11 sequence: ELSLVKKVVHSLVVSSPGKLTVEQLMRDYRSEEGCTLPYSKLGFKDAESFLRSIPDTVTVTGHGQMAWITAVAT

Oskar LOTUS (eLOTUS) = target: T12, Oskar LOTUS (eLOTUS) (Drosophila, UniProt P25158 139-241); experiment: ELISA
T12 sequence: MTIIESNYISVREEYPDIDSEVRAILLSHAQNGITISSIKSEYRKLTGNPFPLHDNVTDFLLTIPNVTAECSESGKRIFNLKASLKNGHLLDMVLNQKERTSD

human TDRD7 L1 = human TDRD7 L1 (Homo sapiens, UniProt Q8NHU6 3-76); experiment: ELISA
Sequence of human TDRD7 L1 (Q8NHU6 3-76): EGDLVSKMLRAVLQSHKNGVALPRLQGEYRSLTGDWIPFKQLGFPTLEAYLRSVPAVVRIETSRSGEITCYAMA

human MARF1 L1 = target: T13, human MARF1 L1 (Homo sapiens, UniProt Q9Y4F3 875-949); experiment: ELISA
T13 sequence: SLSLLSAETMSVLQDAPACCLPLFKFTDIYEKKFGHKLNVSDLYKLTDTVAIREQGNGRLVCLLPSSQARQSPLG

[4] = target: T1, TDRD5 LOTUS domain 3 (L3); experiment: pull-down, ELISA
[5] = target: T2, TDRD5 LOTUS domain 2 (L2); experiment: pull-down, ELISA
[6] = target: T3, TDRD5 LOTUS domain 1 (L1); experiment: pull-down, ELISA

Measured: binding result

GUGUGUGUGUGUGUGUGUGUGUGUGUGUGU (ssRNA) [Poly(GU)]
no binding: [1]

UUACCGUUACCGUUACCGUUACCG (ssRNA) [TERRA G4 mut RNA]
no binding: [2] | [1] | [3] | TP0894-LOTUS | AT3G52980-LOTUS | TDRD7 L2 | human TDRD5 L1 | TDRD7 L3 | human MARF1 L7 | TDRD7 L1 | Tejas LOTUS | Oskar LOTUS (eLOTUS) | human TDRD7 L1 | human MARF1 L1

AGGAGGGAAGGGGAGGGGAGGG (structured_RNA) [Cluster G4-2 RNA]
no binding: [4]

CACACACACACACACACACACACACACACA (ssRNA) [Poly(CA)]
no binding: [2] | [1] | [3]

GAGAGAGAGAGAGAGAGAGAGAGAGAGAGA (ssRNA) [Poly(GA)]
no binding: [1]

AAAAAAAAAAAAAAAAAAA (ssRNA) [Poly(A)]
no binding: [5] | [4] | [6]

GGUCCGCAGCCGAGUCCGGGUCCG (ssRNA) [Cluster G4-1 mut RNA]
no binding: [2] | [1] | [3] | TP0894-LOTUS | AT3G52980-LOTUS | TDRD7 L2 | human TDRD5 L1 | TDRD7 L3 | human MARF1 L7 | TDRD7 L1 | Tejas LOTUS | Oskar LOTUS (eLOTUS) | human TDRD7 L1 | human MARF1 L1

CUCUCUCUCUCUCUCUCUCUCUCUCUCUCU (ssRNA) [Poly(CU)]
no binding: [2] | [1] | [3]

AGGACCGAAGCCGAGCCGAGCC (ssRNA) [Cluster G4-2 mut RNA]
no binding: [2] | [1] | [3]

UUUUUUUUUUUUUUUUUUU (ssRNA) [Poly(U)]
no binding: [5] | [4] | [6]

UUAGGGUUAGGGUUAGGGUUAGGG (structured_RNA) [TERRA G4 RNA]
binds: TP0894-LOTUS | AT3G52980-LOTUS | TDRD7 L2 | human TDRD5 L1 | TDRD7 L3 | human MARF1 L7 | TDRD7 L1 | Tejas LOTUS | Oskar LOTUS (eLOTUS) | human TDRD7 L1 | human MARF1 L1
no binding: [4]
